From patent US5763590A (Vertex Pharmaceuticals, Inc., priority 1994, dated 1998)
Read-outs that look alike come from different tables or passages of the source.

Experiments:
[1] = target: T1, hFKBP52 (Homo sapiens, UniProt Q02790); experiment: Inhibition of peptidyl-prolyl cis-trans isomerase (PPIase) activity of hFKBP52; assay type: biochemical
T1 construct: The hFKBP52 open reading frame (ORF) was expressed in E. coli with a vector (pQE8, Qiagen Inc.); histidine tag (pQE8) (N, cleaved yes); Factor Xa cleavage site (Ile-Glu-Gly-Arg) (N, cleaved yes); made in house; host or cells: E. coli XA90
T1 sequence (Q02790 1-459): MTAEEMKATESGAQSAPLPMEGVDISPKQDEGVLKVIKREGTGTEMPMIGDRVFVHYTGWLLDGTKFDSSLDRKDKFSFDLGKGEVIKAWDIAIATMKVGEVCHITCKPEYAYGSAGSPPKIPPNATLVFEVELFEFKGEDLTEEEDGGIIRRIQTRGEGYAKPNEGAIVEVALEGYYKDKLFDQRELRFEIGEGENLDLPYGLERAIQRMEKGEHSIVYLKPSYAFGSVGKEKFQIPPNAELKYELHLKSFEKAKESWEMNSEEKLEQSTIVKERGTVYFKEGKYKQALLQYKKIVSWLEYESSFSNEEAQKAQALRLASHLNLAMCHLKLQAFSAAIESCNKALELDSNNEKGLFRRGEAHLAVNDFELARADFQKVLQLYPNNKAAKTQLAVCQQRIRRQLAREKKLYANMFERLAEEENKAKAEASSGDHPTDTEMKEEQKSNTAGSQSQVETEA
Description: The peptidyl-prolyl isomerization rate was determined by coupling isomerization of a prolyl-containing peptide to trans substrate hydrolysis by chymotrypsin (Fisher, G., et al., Nature 337:476-478 (1989)). The assay was performed according to Harrison and Stein (Biochem., 29:3813-3816 (1980) with modifications described by Park S. T., et al., J. Biol. Chem. 267:3316-3324 (1992). The tetrapeptide substrate succinyl-Ala-P1-Pro-Phe-p-nitroanilide, where P1=Leu, was used to determine specific activity and inhibition constants, and a series of peptide substrates with related structures (P1=Phe, Val, Ala, Gly, Glu or Lys) was used to determine substrate specificity. Protein concentrations of rhFKBP52 stock solutions were determined by a Coomassie Blue binding assay (Bradford, M., Anal. Biochem., 72:248-254 (1976)). FKBP52 (60 nM final) was added to a reaction mixture containing substrate (27 μM final) in 0.1M Tris-HCl, pH 7.8 at 15° C., and the solution was incubated in a 2 ml cuvette for 5 min at 15° C. […] For measurement of substrate specificity, the final FKBP52 concentration was adjusted so the Kobs was at least four-fold higher than knon-enz. Inhibition data were fit to an equation for tight-binding competitive inhibitors using KineTic™ software (BioKin, Ltd.) running on a Macintosh IIcx computer.

[2] = cited from earlier work
[3] = target: Suc-Ala-Ala-Pro-Phe-pNA
[4] = target: Suc-Ala-Leu-Pro-Phe-pNA
[5] = target: Suc-Ala-Phe-Pro-Phe-pNA
[6] = target: Suc-Ala-Val-Pro-Phe-pNA
[7] = PPIase catalysis of the isomerization of tetrapeptide substrates (chymotrypsin-coupled assay); assay type: biochemical
Description: As described in detail in Example 2, the assay of Harrison and Stein (Harrison, R. K. and R. L. Stein, Biochemistry 29:3813-3816 (1990)) can be used to measure peptidyl prolyl cis-trans isomerization (PPIase) activity of FKBP52.
The peptidyl-prolyl isomerization rate was determined by coupling isomerization of a prolyl-containing peptide to trans substrate hydrolysis by chymotrypsin (Fisher, G., et al., Nature 337:476-478 (1989)). The assay was performed according to Harrison and Stein (Biochem., 29:3813-3816 ([…]) with modifications described by Park S. T., et al., J. Biol. Chem. 267:3316-3324 (1992). The tetrapeptide substrate succinyl-Ala-P1-Pro-Phe-p-nitroanilide, where P1=Leu, was used to determine specific activity and inhibition constants, and a series of peptide substrates with related structures (P1=Phe, Val, Ala, Gly, Glu or Lys) was used to determine substrate specificity. Protein concentrations of rhFKBP52 stock solutions were determined by a Coomassie Blue binding assay (Bradford, M., Anal. Biochem., 72:248-254 (1976)). FKBP52 (60 nM final) was added to a reaction mixture containing substrate (27 μM final) in 0.1M Tris-HCl, pH 7.8 at 15° C., and the solution was incubated in a 2 ml cuvette for 5 min at 15° C. (950 μl final) before adding chymotrypsin (100 μg ml^-1 final) to start reaction. For measurement of substrate specificity, the final FKBP52 concentration was adjusted so the Kobs was at least four-fold higher than knon-enz. Inhibition data were fit to an equation for tight-binding competitive inhibitors using KineTic™ software (BioKin, Ltd.) running on a Macintosh IIcx computer.

CO[C@H]1C[C@@H]2CC[C@@H](C)[C@@](O)(O2)C(=O)C(=O)N2CCCC[C@H]2C(=O)O[C@H]([C@H](C)C[C@@H]2CC[C@@H](O)[C@H](OC)C2)CC(=O)[C@H](C)/C=C(\C)[C@@H](O)[C@@H](OC)C(=O)[C@H](C)C[C@H](C)/C=C/C=C/C=C/1C [rapamycin]
Ki [1]: 8 nM

hFKBP12: recombinant human FK506 binding protein of Mr about 11,800, used as comparator PPIase
Specific activity at 15° C. ([2]; Substrate P1 = Ala, data from Park et al. 1992): 310000 M⁻¹ s⁻¹ | Specific activity at 15° C. ([2]; Substrate P1 = Leu (Suc-Ala-Leu-Pro-Phe-pNA), data from Park et al. 1992, listed as FKBP12): 4.3e+06 M⁻¹ s⁻¹ | Specific activity at 15° C. ([2]; Substrate P1 = Leu (Suc-Ala-Leu-Pro-Phe-pNA), data from Park et al. 1992): 4.3e+06 M⁻¹ s⁻¹ | Specific activity at 15° C. ([2]; Substrate P1 = Phe, data from Park et al. 1992): 2e+06 M⁻¹ s⁻¹ | Specific activity at 15° C. ([2]; Substrate P1 = Val, data from Park et al. 1992): 900000 M⁻¹ s⁻¹

recombinant human FKBP52 (Mr 52,000 FK506 binding protein) (enzyme)
Specific activity at 15° C. (PPIase, chymotrypsin-coupled assay) [3]: 26000 M⁻¹ s⁻¹ | Specific activity at 15° C. (PPIase, chymotrypsin-coupled assay) [4]: 390000 M⁻¹ s⁻¹ | Specific activity at 15° C. (PPIase, chymotrypsin-coupled assay) [5]: 73000 M⁻¹ s⁻¹ | Specific activity at 15° C. (PPIase, chymotrypsin-coupled assay) [6]: 39000 M⁻¹ s⁻¹

B1: hFKBP52: Mr 52,000 FK506 binding protein; recombinant human form expressed in E. coli, 459 residues (SEQ ID NO: 26) (protein)
chain: MTAEEMKATESGAQSAPLPMEGVDISPKQDEGVLKVIKREGTGTEMPMIGDRVFVHYTGWLLDGTKFDSSLDRKDKFSFDLGKGEVIKAWDIAIATMKVGEVCHITCKPEYAYGSAGSPPKIPPNATLVFEVELFEFKGEDLTEEEDGGIIRRIQTRGEGYAKPNEGAIVEVALEGYYKDKLFDQRELRFEIGEGENLDLPYGLERAIQRMEKGEHSIVYLKPSYAFGSVGKEKFQIPPNAELKYELHLKSFEKAKESWEMNSEEKLEQSTIVKERGTVYFKEGKYKQALLQYKKIVSWLEYESSFSNEEAQKAQALRLASHLNLAMCHLKLQAFSAAIESCNKALELDSNNEKGLFRRGEAHLAVNDFELARADFQKVLQLYPNNKAAKTQLAVCQQRIRRQLAREKKLYANMFERLAEEENKAKAEASSGDHPTDTEMKEEQKSNTAGSQSQVETEA
Specific activity at 15° C. ([7]; Substrate P1 = Ala): 26000 M⁻¹ s⁻¹ | Specific activity at 15° C. ([7]; Substrate P1 = Leu (Suc-Ala-Leu-Pro-Phe-pNA)): 390000 M⁻¹ s⁻¹ | Specific activity at 15° C. ([7]; Substrate P1 = Leu (Suc-Ala-Leu-Pro-Phe-pNA), listed as FKBP52): 390000 M⁻¹ s⁻¹ | Specific activity at 15° C. ([7]; Substrate P1 = Phe): 73000 M⁻¹ s⁻¹ | Specific activity at 15° C. ([7]; Substrate P1 = Val): 39000 M⁻¹ s⁻¹ | Specific activity relative to recombinant human FKBP12 (rhFKBP12) ([7]; substrate Suc-Ala-Leu-Pro-Phe-pNA, 15° C.): approximately 10%
